{"source": "the supplement of paper PMC9112550", "about": "“Optimization of the antimicrobial peptide Bac7 by deep mutational scanning” (BMC Biology, 2022);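 further: peptides expressed intracellularly from a pBAD plasmid library in pooled LB shake-flask culture, induced with 0.3% L-arabinose, DNA abundance read by NGS, three biological replicates, DESeq2 with apeglm shrinkage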", "data": [{"test_system": "Escherichia coli TOP10", "experiment": "shrunken log2 fold change of peptide-encoding DNA abundance (4.5 h post-induction vs induction); higher = less antimicrobial activity (less host growth inhibition)", "conditions": "time post-induction: 4.5 h; library: site-saturation at positions 5, 18, 19, 20", "values": [{"sequence": "RRIRPRPPRLPRPRPRPFYLPRP", "shrunken log2 fold change": -0.685}, {"sequence": "RRIRGRPPRLPRPRPRPKAEPRP", "shrunken log2 fold change": 1.35}, {"sequence": "RRIRWRPPRLPRPRPRPNWVPRP", "shrunken log2 fold change": 0.0816}, {"sequence": "RRIRARPPRLPRPRPRPFQLPRP", "shrunken log2 fold change": -0.94}, {"sequence": "RRIRLRPPRLPRPRPRPNYIPRP", "shrunken log2 fold change": -0.301}, {"sequence": "RRIRCRPPRLPRPRPRPAEGPRP", "shrunken log2 fold change": 0.14}, {"sequence": "RRIRLRPPRLPRPRPRPITQPRP", "shrunken log2 fold change": -0.264}, {"sequence": "RRIRLRPPRLPRPRPRPLFTPRP", "shrunken log2 fold change": -0.232}, {"sequence": "RRIRCRPPRLPRPRPRPFGQPRP", "shrunken log2 fold change": -0.442}, {"sequence": "RRIRNRPPRLPRPRPRPPRQPRP", "shrunken log2 fold change": 0.449}, {"sequence": "RRIRQRPPRLPRPRPRPGWFPRP", "shrunken log2 fold change": 0.209}, {"sequence": "RRIRNRPPRLPRPRPRPHHPPRP", "shrunken log2 fold change": -0.398}, {"sequence": "RRIRYRPPRLPRPRPRPATCPRP", "shrunken log2 fold change": 0.0415}, {"sequence": "RRIRYRPPRLPRPRPRPPKVPRP", "shrunken log2 fold change": -0.149}, {"sequence": "RRIRVRPPRLPRPRPRPPAGPRP", "shrunken log2 fold change": 0.522}, {"sequence": "RRIRVRPPRLPRPRPRPFQNPRP", "shrunken log2 fold change": 0.00707}, {"sequence": "RRIRERPPRLPRPRPRPMCDPRP", "shrunken log2 fold change": -0.212}, {"sequence": "RRIRNRPPRLPRPRPRPGEHPRP", "shrunken log2 fold change": 0.00902}, {"sequence": "RRIRKRPPRLPRPRPRPRKKPRP", "shrunken log2 fold change": 0.381}, {"sequence": "RRIRPRPPRLPRPRPRPPTIPRP", "shrunken log2 fold change": -0.148}, {"sequence": "RRIRTRPPRLPRPRPRPTYNPRP", "shrunken log2 fold change": -0.593}, {"sequence": "RRIRARPPRLPRPRPRPSRWPRP", "shrunken log2 fold change": 0.388}, {"sequence": "RRIRRRPPRLPRPRPRPKTYPRP", "shrunken log2 fold change": -0.239}, {"sequence": "RRIRKRPPRLPRPRPRPCPYPRP", "shrunken log2 fold change": 0.151}, {"sequence": "RRIRNRPPRLPRPRPRPCDFPRP", "shrunken log2 fold change": -0.529}, {"sequence": "RRIRCRPPRLPRPRPRPRLKPRP", "shrunken log2 fold change": 0.0782}, {"sequence": "RRIRPRPPRLPRPRPRPLIGPRP", "shrunken log2 fold change": 0.009}, {"sequence": "RRIRKRPPRLPRPRPRPMYQPRP", "shrunken log2 fold change": 0.056}, {"sequence": "RRIRSRPPRLPRPRPRPYNYPRP", "shrunken log2 fold change": -0.494}, {"sequence": "RRIRIRPPRLPRPRPRPHQFPRP", "shrunken log2 fold change": -0.525}, {"sequence": "RRIRNRPPRLPRPRPRPMSWPRP", "shrunken log2 fold change": -0.549}, {"sequence": "RRIRDRPPRLPRPRPRPPGRPRP", "shrunken log2 fold change": 0.104}, {"sequence": "RRIRARPPRLPRPRPRPIMSPRP", "shrunken log2 fold change": 0.0485}, {"sequence": "RRIRPRPPRLPRPRPRPVMFPRP", "shrunken log2 fold change": 0.885}, {"sequence": "RRIRGRPPRLPRPRPRPTSYPRP", "shrunken log2 fold change": 0.105}, {"sequence": "RRIRARPPRLPRPRPRPTGNPRP", "shrunken log2 fold change": 0.186}, {"sequence": "RRIRSRPPRLPRPRPRPFFNPRP", "shrunken log2 fold change": 0.00333}, {"sequence": "RRIRNRPPRLPRPRPRPDVKPRP", "shrunken log2 fold change": -0.412}, {"sequence": "RRIRPRPPRLPRPRPRPDAIPRP", "shrunken log2 fold change": 0.148}, {"sequence": "RRIRQRPPRLPRPRPRPEIQPRP", "shrunken log2 fold change": 0.0108}, {"sequence": "RRIRGRPPRLPRPRPRPMGCPRP", "shrunken log2 fold change": 0.0963}, {"sequence": "RRIRIRPPRLPRPRPRPISYPRP", "shrunken log2 fold change": -0.197}, {"sequence": "RRIRHRPPRLPRPRPRPVIWPRP", "shrunken log2 fold change": -0.134}, {"sequence": "RRIRIRPPRLPRPRPRPGDVPRP", "shrunken log2 fold change": -0.227}, {"sequence": "RRIRKRPPRLPRPRPRPPPFPRP", "shrunken log2 fold change": 0.442}, {"sequence": "RRIRYRPPRLPRPRPRPNYHPRP", "shrunken log2 fold change": -1.04}, {"sequence": "RRIRVRPPRLPRPRPRPQFRPRP", "shrunken log2 fold change": -1.21}, {"sequence": "RRIRVRPPRLPRPRPRPWYSPRP", "shrunken log2 fold change": -0.183}, {"sequence": "RRIRTRPPRLPRPRPRPHDPPRP", "shrunken log2 fold change": -0.283}, {"sequence": "RRIRNRPPRLPRPRPRPVCEPRP", "shrunken log2 fold change": 1.34}, {"sequence": "RRIRCRPPRLPRPRPRPEQAPRP", "shrunken log2 fold change": 0.219}, {"sequence": "RRIRYRPPRLPRPRPRPLRPPRP", "shrunken log2 fold change": 0.786}, {"sequence": "RRIRKRPPRLPRPRPRPHYEPRP", "shrunken log2 fold change": -0.0316}, {"sequence": "RRIRLRPPRLPRPRPRPPWFPRP", "shrunken log2 fold change": 0.165}, {"sequence": "RRIRERPPRLPRPRPRPDGGPRP", "shrunken log2 fold change": 0.0135}, {"sequence": "RRIRGRPPRLPRPRPRPMEDPRP", "shrunken log2 fold change": -0.0262}, {"sequence": "RRIRNRPPRLPRPRPRPDCVPRP", "shrunken log2 fold change": -0.106}, {"sequence": "RRIRVRPPRLPRPRPRPLDQPRP", "shrunken log2 fold change": 0.0826}, {"sequence": "RRIRMRPPRLPRPRPRPNSIPRP", "shrunken log2 fold change": -0.283}, {"sequence": "RRIRVRPPRLPRPRPRPANQPRP", "shrunken log2 fold change": -0.186}, {"sequence": "RRIRYRPPRLPRPRPRPQYGPRP", "shrunken log2 fold change": -0.161}, {"sequence": "RRIRARPPRLPRPRPRPGHSPRP", "shrunken log2 fold change": -0.0933}, {"sequence": "RRIRFRPPRLPRPRPRPDERPRP", "shrunken log2 fold change": -0.0426}, {"sequence": "RRIRYRPPRLPRPRPRPFIIPRP", "shrunken log2 fold change": -1.23}, {"sequence": "RRIRYRPPRLPRPRPRPFKCPRP", "shrunken log2 fold change": -0.135}, {"sequence": "RRIRARPPRLPRPRPRPTLYPRP", "shrunken log2 fold change": -0.034}, {"sequence": "RRIRSRPPRLPRPRPRPMSLPRP", "shrunken log2 fold change": 0.226}, {"sequence": "RRIRSRPPRLPRPRPRPISVPRP", "shrunken log2 fold change": -0.151}, {"sequence": "RRIRMRPPRLPRPRPRPHKTPRP", "shrunken log2 fold change": 0.0147}, {"sequence": "RRIRVRPPRLPRPRPRPQPCPRP", "shrunken log2 fold change": -0.0059}, {"sequence": "RRIRERPPRLPRPRPRPIYSPRP", "shrunken log2 fold change": -0.413}, {"sequence": "RRIRTRPPRLPRPRPRPYYPPRP", "shrunken log2 fold change": -0.335}, {"sequence": "RRIRFRPPRLPRPRPRPLHRPRP", "shrunken log2 fold change": 0.136}, {"sequence": "RRIRPRPPRLPRPRPRPMWYPRP", "shrunken log2 fold change": -0.111}, {"sequence": "RRIRCRPPRLPRPRPRPWCRPRP", "shrunken log2 fold change": -0.282}]}]}
